No end group written: not given here.
Columns and labels:
[1] = biological target: first bromodomain (BD1) of BRD3, wild type (human, UniProt Q15059); assay: ITC
[2] = biological target: first bromodomain (BD1) of BRD4, wild type (human, UniProt O60885); assay: ITC

Chain of first bromodomain (BD1) of BRD3, wild type (Q15059 24-144): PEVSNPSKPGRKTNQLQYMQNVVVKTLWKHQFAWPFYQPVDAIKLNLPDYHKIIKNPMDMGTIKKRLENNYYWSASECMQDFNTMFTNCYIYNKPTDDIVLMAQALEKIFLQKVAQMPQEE

| binding result [1] | Kd [2] | Binder |
| --- | --- | --- |
| binds | 167 ± 28 µM | AK(Ac)GLLLK(Ac)G [diacetylated ILF3 peptide 10 (AKacGLLLKacG)] |
|  | 60 ± 10 µM | AK(Ac)GALLK(Ac)G [ILF3 variant peptide AKacGALLKacG (aa 99-106) 15 carrying L102A] |
